Experimental data from publication PMC12525521, “N-Terminal Metal-Binding Domain of Arabidopsis IBR5 Is Important for Its in Planta Functions” (International Journal of Molecular Sciences, 2025).
Changes are numbered by the printed parent chain. Numbers in names are those of the source. Where “and” joins values, the source holds several entries; their conditions need not be identical. Equal entries are not always repeated.

B1: SUMO-AtIBR5 (N-terminal 6X His-tagged SUMO fused to the 257-amino acid-long Arabidopsis thaliana indole-3-butyric acid response 5) (enzyme, UniProt Q84JU4 1-257, looked up)
chain: MRKRERENPCSICGHYHKYEEGEVCGVCGHCMPVSSDTVAPQQVHVSAFPSEILPEFLYLGSYDNASRSELLKTQGISRVLNTVPMCQNLYRNSFTYHGLDNEKVLQFDDAIKFLDQCEKDKARVLVHCMSGKSRSPAVVVAYLMKRKGWRLAESHQWVKQRRPSTDISPEFYQQLQEFEQGIFGSEMMSAMNINDAPTFGFGFPKIDNQAQAPVFNNAPTSSIFSSPASSIPPQEFTFGATPPKPTTGGDIAMDGS
notes: AtIBR5, dual-specificity phosphatase, Arabidopsis thaliana, UniProt Q84JU4, AT2G04550; One glycine residue (codon GGU) stands as a linker between the 6X His-SUMO tag and AtIBR5; Cloned with the Expresso T7 SUMO system (pETite N-His SUMO Kan vector); Expected monomer about 42 kDa; also called SUMO-AtIBR5 wild-type protein; source: E. coli BL21 HiControl, purified (Ni-NTA, SEC); not shown: His6, …
B2: SUMO-AtIBR5-q (quadruple mutant of SUMO-AtIBR5, all four conserved cysteine residues substituted with glycine) (enzyme, Arabidopsis thaliana, UniProt Q84JU4 1-257, looked up)
chain: B1 chain with C10G, C13G, C25G, C28G
notes: One glycine residue stands as a linker between the 6x His-SUMO tag and AtIBR5; also called quadruple AtIBR5 mutant; C10G C13G C25G C28G; source: E. coli BL21 HiControl, purified (Ni-NTA, SEC); not shown: His6, N-terminal, kept; SUMO, N-terminal, kept
B3: SUMO-AtIBR5-p (N-terminal 6x His-SUMO tag fused to aa 48-257 of AtIBR5, only the DSP_plant_IBR5-like domain) (domain or fragment, Arabidopsis thaliana, UniProt Q84JU4 48-257, looked up)
chain: AFPSEILPEFLYLGSYDNASRSELLKTQGISRVLNTVPMCQNLYRNSFTYHGLDNEKVLQFDDAIKFLDQCEKDKARVLVHCMSGKSRSPAVVVAYLMKRKGWRLAESHQWVKQRRPSTDISPEFYQQLQEFEQGIFGSEMMSAMNINDAPTFGFGFPKIDNQAQAPVFNNAPTSSIFSSPASSIPPQEFTFGATPPKPTTGGDIAMDGS
notes: One glycine residue stands as a linker between the 6x His-SUMO tag and the AtIBR5 stretch; also called N-terminally truncated AtIBR5; source: E. coli BL21 HiControl, purified (Ni-NTA, SEC); not shown: His6, N-terminal, kept; SUMO, N-terminal, kept

Biological target: the molecule itself
Experiment: SEC; FPLC on HiPrep 26/60 Sephacryl S-300 HR after Ni-NTA purification; 100 mM Tris-HCl pH 8.0, 150 mM NaCl; sizes estimated from a standard curve with the Bio-Rad Gel Filtration Standard; His-SUMO tag kept
In the case of B1, the “stoichiometry N” value is reported as 4 and 2. For B2, the “stoichiometry N” value was 2 and 4. In the case of B3, the “stoichiometry N” value is reported as 2 and 4.
